Assay results taken from US20030147885A1 (IDEC PHARMACEUTICALS, published 2003).

Tests used:
[1] = molecular target: human B lymphocyte-restricted differentiation antigen Bp35 (CD20) (human) (UniProt P11836); test: radioimmunoassay: hybridoma medium against 10 ng I-125 labeled anti-CD20 Bl on 100,000 SB cells
[2] = molecular target: human B lymphocyte-restricted differentiation antigen Bp35 (CD20) (human) (UniProt P11836); test: direct binding of I-125 radiolabeled antibody to CD20 positive B cells, Scatchard plot; printed as apparent affinity constant (Kap)
[3] = molecular target: T1, human B lymphocyte-restricted differentiation antigen Bp35 (CD20) (human, UniProt P11836 1-297); test: as above
T1 construct: whole, on cells; Presented on SB cells, other CD20 positive B cell lines or acetone-fixed human tissues; also called CD20 antigen; CD20 surface antigen
T1 sequence (looked up): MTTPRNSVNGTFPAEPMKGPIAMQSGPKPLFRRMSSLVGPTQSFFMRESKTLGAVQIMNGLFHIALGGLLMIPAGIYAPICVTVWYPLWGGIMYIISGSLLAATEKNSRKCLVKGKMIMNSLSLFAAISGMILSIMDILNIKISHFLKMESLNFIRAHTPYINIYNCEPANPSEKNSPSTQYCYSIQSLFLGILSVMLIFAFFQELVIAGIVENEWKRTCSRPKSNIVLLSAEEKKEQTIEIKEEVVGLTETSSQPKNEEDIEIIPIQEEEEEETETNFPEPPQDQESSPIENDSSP

A % inhibition of I-125 labeled anti-CD20 Bl binding [1] of 50% and a Kd [2] of 3.5 nM were found for “murine anti-CD20 monoclonal antibody 2B8” in this work.

B1: chimeric anti-CD20 antibody produced by the CHO transfectoma (antibody, V domains shown)
VH: QVQLQQPGAELVKPGASVKMSCKASGYTFTSYNMHWVKQTPGRGLEWIGAIYPGNGDTSYNQKFKGKATLTADKSSSTAYMQLSSLTSEDSAVYYCARSTYYGGDWYFNVWGAGTTVTVSA
VL: QIVLSQSPAILSASPGEKVTMTCRASSSVSYIHWFQQKPGSSPKPWIYATSNLASGVPVRFSGSGSGTSYSLTISRVEAEDAATYYCQQWTSNPPTFGGGTKLEIK
notes: domain: heavy chain gamma 1 constant region (Kabat numbering amino acids 114-478); also called C2B8; CHO produced chimeric anti-CD20; not shown: human immunoglobulin light chain kappa constant region, Kabat numbering amino acids 108-214, allotype Km 3
A Kd [3] of 5.2 nM was found for B1 in this work.

B2: chimeric anti-CD20 antibody produced by the SP2/0 transfectoma (antibody, V domains shown)
VH: B1 VH
VL: B1 VL
notes: domain: heavy chain gamma 1 constant region (Kabat numbering amino acids 114-478); Same construct as m2, but produced in SP2/0 mouse myeloma cells; also called SP2/0 produced antibody; not shown: human immunoglobulin light chain kappa constant region, Kabat numbering amino acids 108-214, allotype Km 3
A Kd [3] of 7.4 nM was found for B2 in this work.
